This is an account of results in doi:10.1101/2022.08.09.503299.

The target in the experiment is other proteasome components. The experiment can be described thus: SEC.

Substance “PSMA4-BirA*-FLAG (from UniProt P25789 2-261) (natural protein)” had a share of the BirA* signal that co-elutes with proteasome components of 60%.
